# Target: TCGF receptor on B6.1 cells (mouse CTL line B6.1.SF.1) (mouse (endogenous in the B6.1 CTL line))
# Assay: radioligand binding
# T cell growth factor (TCGF), human, biosynthetically radiolabeled (3H-TCGF), sequence (P60568 21-153): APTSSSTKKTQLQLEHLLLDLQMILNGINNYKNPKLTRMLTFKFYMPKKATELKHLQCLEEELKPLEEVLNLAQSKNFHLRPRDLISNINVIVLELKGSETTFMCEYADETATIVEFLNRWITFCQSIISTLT
sequence,measurement,value
"T cell growth factor (TCGF), human, biosynthetically radiolabeled (3H-TCGF) (from UniProt P60568 21-153) (ligand)",Kd,0.022 nM
